As usually defined, the Kd is the constant that tells how readily two partners part at equilibrium. A low value points to a tighter complex.

Where two headings read alike, the source gives them in different places.

The data set has as its system T1, JUL1 (bead-immobilized for Kd assay) (Arabidopsis thaliana).
T1 sequence: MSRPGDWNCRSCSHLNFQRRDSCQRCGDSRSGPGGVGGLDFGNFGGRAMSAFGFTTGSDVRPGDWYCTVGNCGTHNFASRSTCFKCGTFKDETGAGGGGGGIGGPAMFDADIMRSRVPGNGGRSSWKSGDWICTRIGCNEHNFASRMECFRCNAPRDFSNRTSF
Conditions: FAM-RNA bead fluorescence assay.

SMXL5 5' UTR G-quadruplex-forming motif: the dissociation constant Kd (with potassium (folded G4)) turned out to be 230 nM and the Kd (without potassium) was 130 nM.
